Measurements: the Human Domainome abundance scans (Beltran et al. 2025)

B1: KAT8 regulatory NSL complex subunit 2, residues 28 to 91; numbered along this chain, Q9H9L4 (parent)
chain: CAFTHRPCSHPRLEGQEFCIKHILEDKNAPFKQCSYISTKNGKRCPNAAPKPEKKDGVSFCAEH

Variants of: B1
Experiment: abundance fitness (aPCA) (normalised: wild type 0, dead -1); higher = more abundant; growth selection in yeast, the domain comes from the species named
Conditions: Homo sapiens

Abundance fitness, by site and new letter:
R12: T -0.103, G -0.652, I -0.234, N -0.279, W -1.22, Q -0.561, V -0.066, A -0.055, Y -0.787, L -0.27, D -0.93, F -0.77, K -0.325, M -0.47, E -0.674, S -0.106, H -0.308, P -0.147
T4: S -0.193, N -0.201, Y -0.15, M -0.788, G -0.394, E -0.305, R -0.399, K -0.378, H -0.128, Q -0.494, P -0.512, L -0.53, F -0.181, I -0.114, A -0.404, D -0.163, C -0.102, V -0.468, W -0.388
A2: C -0.08, V -0.235, L -0.152, G -0.101, E -0.522, H -0.231, D -0.388, N 0.023, W -0.541, I -0.198, P -0.421, R -0.138, T -0.103, Q -0.186, F -0.513, S -0.238, K -0.153, M -0.014
H5: Y -0.151, Q 0.011, C -0.112, A -0.068, P -0.146, E 0.017, I -0.084, S -0.144, W -0.193, L -0.068, V -0.023, N -0.212, F -0.096, K -0.083, M -0.012, G -0.017, R -0.01, T 0.034
E14: M -0.034, H -0.262, A -0.107, P -0.141, L -0.12, S -0.147, W -0.396, R -0.258, F -0.252, T -0.129, C -0.168, D -0.152, N -0.334, Q -0.155, I -0.219, V -0.098
C1: R -0.545, K -0.155, S -0.358, N -0.615, T -0.89, M -0.576, V -0.865, Y -0.802, W -0.837, L -0.886, I -0.287
E17: G -0.252, F -0.19, Q -0.077, C -0.112, S -0.105, T -0.051, L -0.116, V -0.102, P -0.137, K -0.15, A -0.207, I -0.036, H -0.129, W -0.26, R -0.216, D -0.098, N -0.023, Y -0.106, M -0.041
F18: N -0.61, D -0.547, V -0.509, E -0.622, C -0.334, S -0.59, M -0.196, H -0.454, K -0.472, W -0.356, Y -0.11, I -0.678, L -0.139, A -0.572, G -0.563, T -0.408, Q -0.642, R -0.325
L13: K -0.24, E -0.334, N -0.53, G -0.423, S -0.331, P -0.86, H -0.215, Y -0.277, I -0.145, C -0.365, D -0.501, V -0.127, F -0.324, R -0.465, Q -0.176, M -0.048, W -0.315, A -0.187, T -0.308
R6: N -0.133, V -0.081, P -0.047, F -0.016, Q -0.072, W -0.118, A -0.167, K -0.032, C -0.032, S -0.055, G -0.068
